The target in this test is T1, γ subunit of Sulfolobus solfataricus aIF2 (Ss-aIF2γ), native version (S. solfataricus, UniProt Q980A5 2-415).
T1 sequence: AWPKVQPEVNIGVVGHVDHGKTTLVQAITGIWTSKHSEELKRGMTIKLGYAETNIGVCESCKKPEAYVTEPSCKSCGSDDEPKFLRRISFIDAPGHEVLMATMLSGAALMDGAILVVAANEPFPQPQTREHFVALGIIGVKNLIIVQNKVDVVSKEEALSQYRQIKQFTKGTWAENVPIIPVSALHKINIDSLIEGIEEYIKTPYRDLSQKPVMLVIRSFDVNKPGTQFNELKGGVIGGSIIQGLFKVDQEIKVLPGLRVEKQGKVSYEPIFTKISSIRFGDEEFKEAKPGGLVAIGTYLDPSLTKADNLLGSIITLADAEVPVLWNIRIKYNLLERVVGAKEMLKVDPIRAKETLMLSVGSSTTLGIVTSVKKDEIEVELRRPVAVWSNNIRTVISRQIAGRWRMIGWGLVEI
Nature of the test: SEC.

B1: yeast αD3ΔC274, His-tag removed (SAXS sample) (domain or fragment)
chain: TPQAVKIRADVEVSCFSYEGIDAIKDALKSAEDMSTEQMQVKVKLVAAPLYVLTTQALDKQKGIEQLESAIEKITEVITKYGGVCNITMPPKAVTAT
Regarding B1, the binding result is “binds”.

B2: yeast eIF2αΔC274, His-tag removed (SAXS sample) (domain or fragment)
chain: MSTSHCRFYENKYPEIDDIVMVNVQQIAEMGAYVKLLEYDNIEGMILLSELSRRRIRSIQKLIRVGKNDVAVVLRVDKEKGYIDLSKRRVSSEDIIKCEEKYQKSKTVHSILRYCAEKFQIPLEELYKTIAWPLSRKFGHAYEAFKLSIIDETVWEGIEPPSKDVLDELKNYISKRLTPQAVKIRADVEVSCFSYEGIDAIKDALKSAEDMSTEQMQVKVKLVAAPLYVLTTQALDKQKGIEQLESAIEKITEVITKYGGVCNITMPPKAVTAT
Consider B2, for which the binding result was “binds”.

For the origin of these results see PMC3553985 (Nucleic Acids Research, 2012).
